Data from patent US20210198347A1 (Chugai, published 2021).

Tests used:
[1] = target: T1, Native proenzyme human C1s (Comptech A103) (human, UniProt P09871 16-688); assay: SPR (BIACORE T200, 37 degrees C, pH 7.4), antibody captured by protein A/G, C1s 50 nM
T1 construct: mature; Bought native protein; also called native human C1s Proenzyme; native human C1s proenzyme protein (CompTech)
T1 sequence (looked up): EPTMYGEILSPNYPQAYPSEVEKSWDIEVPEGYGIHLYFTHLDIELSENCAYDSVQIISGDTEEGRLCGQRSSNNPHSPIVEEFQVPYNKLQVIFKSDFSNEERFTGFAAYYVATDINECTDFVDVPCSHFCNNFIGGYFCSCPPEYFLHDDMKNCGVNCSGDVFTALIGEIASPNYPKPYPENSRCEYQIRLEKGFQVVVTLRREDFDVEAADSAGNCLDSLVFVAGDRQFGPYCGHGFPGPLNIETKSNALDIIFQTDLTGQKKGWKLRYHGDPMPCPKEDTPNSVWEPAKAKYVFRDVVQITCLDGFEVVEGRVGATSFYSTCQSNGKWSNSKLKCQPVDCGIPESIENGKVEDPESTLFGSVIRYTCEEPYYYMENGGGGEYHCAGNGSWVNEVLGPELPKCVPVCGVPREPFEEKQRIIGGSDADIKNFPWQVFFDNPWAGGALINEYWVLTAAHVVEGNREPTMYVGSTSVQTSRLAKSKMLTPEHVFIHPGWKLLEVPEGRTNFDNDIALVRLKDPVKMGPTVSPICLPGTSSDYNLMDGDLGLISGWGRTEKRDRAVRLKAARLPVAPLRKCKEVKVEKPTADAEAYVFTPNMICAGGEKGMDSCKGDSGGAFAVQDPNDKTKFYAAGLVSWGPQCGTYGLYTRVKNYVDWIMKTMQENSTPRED
Procedure: The binding specificities of the six C1s CUB1-EGF-CUB2 binders were determined at 37 degrees C. using BIACORE® T200 instrument (GE Healthcare). Recombinant Protein A/G (Pierce) was immobilized onto all flow cells of a CM4 sensor chip using an amine coupling kit (GE Healthcare). Antibodies and analytes were prepared in 7(+) buffer (20 mM ACES, 150 mM NaCl, 1.2 mM CaCl₂, 0.05% Tween 20, 0.005% NaN₃, pH 7.4). Each antibody was captured onto the sensor surface by protein A/G. Antibody capture levels were aimed at 100 resonance unit (RU). Native proenzyme human C1s (Comptech A103) (at 50 nM as a monomer) or recombinant human C1s CCP1-CCP2-SP-His (at 100 nM as a monomer) was injected, followed by dissociation. Sensor surface was regenerated each cycle with 10 mM Glycine-HCl pH 1.5. The six C1s CUB1-EGF-CUB2 binders bound to the native proenzyme human C1s, but not recombinant human C1s CCP1-CCP2-SP-His, which is a truncated protein lacking the CUB1-EGF-CUB2 domain.

[2] = target: T2, recombinant human C1s CCP1-CCP2-SP-His (human, UniProt P09871 292-688); assay: SPR (BIACORE T200, 37 degrees C, pH 7.4, 1.2 mM CaCl2), antibody captured by protein A/G
T2 construct: Truncated protein lacking the CUB1-EGF-CUB2 domain; also called human C1s CCP1-CCP2-SP M292-D688
T2 sequence: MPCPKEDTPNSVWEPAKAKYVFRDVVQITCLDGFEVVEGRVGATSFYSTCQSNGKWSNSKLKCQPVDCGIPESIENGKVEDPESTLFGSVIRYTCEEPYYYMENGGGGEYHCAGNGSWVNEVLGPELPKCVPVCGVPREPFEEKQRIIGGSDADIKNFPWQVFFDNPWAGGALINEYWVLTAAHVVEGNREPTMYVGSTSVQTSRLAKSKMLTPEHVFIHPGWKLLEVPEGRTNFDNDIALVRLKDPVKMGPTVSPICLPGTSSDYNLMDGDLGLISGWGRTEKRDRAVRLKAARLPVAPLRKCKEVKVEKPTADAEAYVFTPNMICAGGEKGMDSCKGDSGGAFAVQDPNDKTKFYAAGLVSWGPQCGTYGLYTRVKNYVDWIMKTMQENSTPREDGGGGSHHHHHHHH

- binding result [1]: binds
- binding result [2]: no binding (tested: 100 nM)
B1: COS0583gg-SG1148 (antibody, human IgG1, kappa, V domains shown)
VH: QSLEESGGRLVTPGTPLTLTCTVSGIDLSSYAMIWVRQAPGKGLEWIGIIYVRGSTYYASWAKDRFTISKTSTTVDLKITSPTTEDTATYFCARAYGGDTFSDGFDPWGPGTLVTVSS
VL: DPVMTQTPSSTSAAVGGTVTINCQSSQNVYGNNRLAWYQQKPGQPPKLLIYLASTLASGVPSRFRGNGSGTQFTLTISGVQCDDAATYYCAGGYRDDTNSFGGGTKVEIKR
notes: Constant regions as for m1; also called COS583; COS583gg(-SG1148)
